The DeepSol protein solubility set

assay: soluble on expression in E. coli; label from the status in PepcDB or PDB records

Sequence	soluble on expression in E. coli
MGSDKIHHHHHHMDWGIYMKQLPFKAVAVDVDGTFENDKKEYDHEMFGEILYRLHKHGAHFIIASGRPAGRLSDDFGDFIDSVDFVADNGAVLVRDGKIIRTTCFSKKGILHLIDYMHQRYPGSVTTLLISGVKHSYFLKSTPPEFKRSHHYFYPNSIEIDDFSQIPADDQYTKITVDYPSKVRHELEYGFNSRSMEKIHVTTSGWNYMDIIPQGVNKATGLKEFLAYLDVPRSELIAFGDGENDIEMLKLAGLSYAMENGQNSVKKIANFIAPSNNDNGVFKVLNHYLNEVNK	not soluble
MAHHHHHHMTAALNRKFDLLQKSGTCPSYLLDVLTLLVAHANETELFKQELRSAPFENAAPPLRADRGMVAAAAPQPEMGTQTVTQPEAPGTEKEVLLAAERTLRAYASDLRKINDIAMATSSKKLREMKMSNFTEMAAFRDRVVSDAVDRAREELELLRMGWLESMNTEVERAKMEVHKVGLSSQKALHKMLEGYRDYVSDGFRLLKTEPLEVMHRAMAECAFCVERLKIMEQQVVPRIEIDALCGRLKSVERVIAQMLKKRHSSGVVDDEISVVPTAGPSETGASTAAAGDDRPLGLRLRDGGNDVEGLIVTEVAPNSLASKARISPGQIISHVGDALVTRRDDFTTAMQKTGSAAKLTIYDPETAVVRILTLKP	soluble
MAHHHHHHMERYESIAERAGFARSQVLPRGSGGSSSASVCYENAANYLQHARGADYATASCSVPVDIWDALCQGEASVLRVGQLGEGRQRLIAYESCTTSSHSGDLSSRLASLEKSLDKLLSEFPKTAEELVTLDYNASLCSAAARSVLTAVPSFLSISGLLRTINNKLCSLDGFSREVLPLMRCDDDVSRQCLLVAGRLDTLEEKLRTTEALVAALGHTSAASNAIFERIGARYGETTRAATM	not soluble
MGSSHHHHHHSSGRENLYFQGMSVVFGVDIVGGSVHGKIKPKYAVVVLENGNEFEKIVSRSKLFRMVKKEKPDIIAVDNIYEVFKDKKDLIFFLKNAPSKTKLVQVTDRENSLPSLSKRFGLNINIRNPVDEARACAYLASFGMGSEISVFTDKTKITVSRNRSLGKGGWRQKKYGRKIHNAVREVYKEIRDRIVEAGFEFVEEVRKGYGGISRGVILVSAPRDRVPINSFKTRDVQVAVEAVEKEKIEFIPLRRTLRYLIVGIDPGATTAIAALDLRGELVDMKSRKGWSPAEVIEFISSLGKPVVVSTDKSSPPEFVSKIRASFNAVLYTPKEDMSVEKKRILTSKYSTSNDHERDALAAAIDAFNSYKSKLINVEKRLPAGIDSDRIKAEIIRGTPLKEVLSVTREESREEKVQAETVSREEILKRDRVIERLKEENRILSRKIKEMKDEIEKLRARVASISREEHEKIRKDTYVQNLEREIFDLRKKLKEKDEEIEQLKERIALLRKMKMLEFQGWKEVKVLRKFTKEEIERAEREMGISEGDIILIVDSSGGSASLAEMLCEKKVRAIIYGSEMSHLAAETFEKYNIPRISIDEVEIMMGDDIAVVNAEEFERVYAEKLEETKRRKIDFLEKLVEDYRRRRVV	soluble
MILRIIYTLLNYLSQPVLLLMMWRKTARHTKQTSRLWERYGIYRQLTAPRPQGIVIHAASVGEVIAATPLINAIQTHYPALPITVTTFTQTASERVQAIFANTVSHIYLPFDLPFAVNRFIKFTQPRLFIVIETELWPNLITQTYRQHIPFIIANGRLSARSLKHYQWFNPALQKILNQISMIIAQDQISAERYAQLGFNSQQLTTAGNLKFDLEISEQLRQTIQKTKQTLTLGNRPVWIAGSTHEGEDEIILATHQQLLSEWPDLLLILAPRHPNRFKNVENLLIKSELCYVKRSQQCPLTDHTQVLLADTLGEMMILYGLANIAFVGGSLIKHGGHNPLEPIAFGLPIISGIHTFNFLEIFNKLKAIHGVIEVTNDPADLAQAVNLLLKDPKKYTAIAQAGLSMLKANQGSLQRHLQLLAPYLEKLEHHHHHH	not soluble
MGSDKIHHHHHHMNEKEYEERLRIETIDIQHLYNAFSHYNRYEPTPYAALEELCAVYPFDYTDTVIDFGCGKGRLNFYLHDRFDCSVIGVEMNGQFYEDALMNQVTYMKKMKRRRGSIRFEHTYAEAYPIPDDVTKCYFFNPFSVQIFMKVVDQILASVERHPRPVDLILYYPADEYRYYLENQTIFEQVEEVRLKELFEKNHDERFVIYRVNLSQEVPKRV	not soluble
MVEKEKKDEEETRKITISVKGIRDDVYRNVSELARHTGKTIGEITNDAYRTFLGTVEGVRNVSQSFIEGAKGAIPRYIDNFKKLEITADDLKDLGQKVAFRNIDELTFKNITDEEFSKYVAFIDGVKVLKIPKTVKKTTVIKISTFVDEIIQE	not soluble
MLIFKIFRRSEWDDFRRAGATAGAPVDLADGYIHFSTAAQVAETAAKHFTAESDLVLVAIDPDRAGPDLKWEPSRGEQLFPHLYRRLTLDDVVWDKSLPLGATGHIFPEGLWLEHHHHHH	soluble
MKVMECQTYEELSQIAARITADTIKEKPDAVLGLATGGTPEGTYRQLIRLHQTENLSFQNITTVNLDEYAGLSSDDPNSYHFYMNDRFFQHIDSKPSRHFIPNGNADDLEAECRRYEQLVDSLGDTDIQLLGIGRNGHIGFNEPGTSFKSRTHVVTLNEQTRQANARYFPSIDSVPKKALTMGIQTILSSKRILLLISGKSKAEAVRKLLEGNISEDFPASALHLHSDVTVLIDREAASLRP	soluble
MGSDKIHHHHHHMVILLNPNILESSFIPERLRARDSEISKIMEVVIKPALNNITTNLIIYGDSGTGKTVTMRFLAREVRNPKIFYINAISYRSVKNVLVELLSHEGVIISERASYANIYTRLEKAIEKYDKTVILVIDEAANILRTDEEGLYYLFRSKDSFDVNISAIFIAMDDPALLLNQRIKRSYGLFNELKFKRYSKDEILEIVRDRARMSLNTTSYDDTIIDYIAEISSEFGSARVAIDILAKAAHIAEYRRSENISYDDVRAAKSMISPYVTESKLASLDKYELAALLAICGCLSHSVSTDIACVSEQLKILREQYSLDPEMDIYEILRKLEGLGIINSYVESSGKSSGVRKKISIHDVPVSVLAEKIGNLLNGMA	not soluble
MGHHHHHHSHMGYKLQDLTDVQIMARLQEESLRQDYASTSASVSRHSSSVSLSSGKKGTCSDQEYDQYSLEDEEEFDHLPPPQPRLPRCSPFQRGIPHSQTFSSIRECRRSPSSQYFPSNNYQQQQYYSPQAQTPDQQPNRTNGDKLRRSMPNLARMPSTTAISSNISSPVTVRNSQSFDSSLHGAGNGISRIQSCIPSPGQLQHRVHSVGHFPVSIRQPLKATAYVSPTVQGSSNMPLSNGLQLYSNTGIPTPNKAAASGIMGRSALPRPSLAINGSNLPRSKIAQPVRSFLQPPKPLSSLSTLRDGNWRDGCY	not soluble
MKLANTKGERKLEQKLYYTDAYKQDFTTKVIKQDYDKDGNLYVILNETVFYPTGGGQPHDTGTLNGIAVLGVEEVDEEIRHFIAEQLHTEEVEGKINWERRFDHMQQHAAQHILSAAFWDYFNIPTIGFHLGKETVTIDLETENLHAETVEKAVQIANKIVFENHPILIKWMNLEEAKTLPLRKEPTMTENIRVVMIENFDYNGCGGTHPKRTGEVGPIQVLGWERNKGGIRLTFIAGWRTLKLMGQQQQIMKDVSKQLNSSEADIPAKVAQLLTSQKENKKAMQTMTEKLLYTEANELLQQPTKIHAGILISKVFTNRSMQEIAKLSAIITEQQEHAITYFVIENEDKLQCILACGKTVTLDMNALLKEALPTIEGKGGGNKKSARGGGKAMMSGDEFLNQLISSLQSAV	not soluble
MGSDKIHHHHHHMKTNLLNYDLQGLTRHFADMGEKPFRAKQVMRWMHQSGAQNFNEMTDLAKSLRHKLNEQAGIEIPKLMMSQKSSDGTRKWLLDVGTGNGVETVFIPESDRGTLCISSQVGCALECTFCSTGRQGFNRNLTAAEIIGQLWWANKAMGVTPKNERVISNVVMMGMGEPMANFDNVVTALSIMLDDHGYGLSRRRVTVSTSGMVPQMDRLRDVMPVALAVSLHASNDEVRNQIVPLNKKYPLKELMAACQRYLVKAPRDFITFEYVMLDGINDKAQHARELIELVTDVPCKFNLIPFNPFPNSGYERSSNENIRVFRDILQQAGFVVTVRKTRGDDIDAACGQLAGQVQDKTRRQQKWQQILIGQQG	not soluble
PDFTPQKFKEKTAEQLRVLQASFLNSSVLTDEELNRLRAQTKLTRREIDAWFTEKKKSKALKEEKMEIDESNAGSS	soluble
SLIRGWLAEGERMKETSYYSYVVGELPKGCQYCVRGEKLVLFVTGVCPRNCFYCPLSPWRRKDVAYANERPIRKIEDIIEEAKIQEARGAGVTGGDPLARLNRTVEYIRTLKEEFGKKFHIHLYTTGILADKRALSMLYDAGLDEIRFHPDLFEPSSKFLNREIENLKNAFDFDWDVGGEVPAVPGFGDRIKWFAEILDKFGGKFLNINELEYSETNLSNILNRGFKLAGENSFAIKGSLELGLEILEWGEKNTSLYYHLCTAKLKDAVQLRNRLRRMAKNVAKPYMEITEDGTLRFGIAEYEDLEELYKFLVEEAEVPKEWLYINWEKKRIEMPVEVAEELAEAIEGDVKFYIVEEYPTWDRIEVERIPLNEG	soluble
MGSDKIHHHHHHMTLEIAQKRTIKLLKSSTPKEKLNKFVKGYVPTHYKRLSISMEKAIELAIIGATESLAYYGDRLYFTQALLMGAVVSGEYDNIIVVTPSQYGKSWLSSRIAVWLADHNRRCYVAGGKKDTTDIIMQHVTDTLQTVDESIARKLLEPVDKLERLQTGLSKRKISFSGGGSIEGISLGEHFKGNKSGNQAIGRGGDYIIDESAFVSNETYAELGRRNFANVDGKNYLSFEISNPHNKGRFYDKLTQENIPKGMLVVWADVRTAFEEDRVKSIEQVISSEFFQNKSTCQRYFLCELPDENEDGMFGTPQTEEEHTEKNWEYFLGVDSAYKGKDKIKATLSALDAQGQVHVIDTIEIEKGDWQDGVTSKKIITQLLMIIEHFEVKGVCVDVGYGVYIVEGLAHINGDFELHGINFGAGTTKERVEKNHYSAKYGANKRAEMHIDLQENIDNRNIFFTEKVYEEVIDELVLVSSKIKSNGKTAIVPKEEIKAKLGHSPDTLDSVLLSLHAIILYKLNERFYIYS	not soluble
SNAMNASAVETIYESTEDKAALTSVVDLVKLSDQYRQSAILHYAVADKLFDLTQTGRTPAEVAASFGMVEGKAAILLHALAALGLLTKEGDAFRNTALTERYLTTTSADYIGPIVEHQYLQWDNWPRLGEILRSEKPLAFQQESRFAHDTRARDAFNDAMVRLSQPMVDVVSELGVFARARTVIDLAGGHGTYLAQVLRRHPQLTGQIWDLPTTRDAARKTIHAHDLGGRVEFFEKNLLDARNFEGGAADVVMLNDCLHYFDAREAREVIGHAAGLVKPGGALLILTMTMNDDRVTPALSADFSLHMMVNTNHGELHPTPWIAGVVRDAGLAVGERSIGRYTLLIGQRSSGE	soluble
MTIPFDHWPEWPQHSDRTRRKIEEVFQSNRWAISGYWTGEESMERKFAKAFADFNGVPYCVPTTSGSTALMLALEALGIGEGDEVIVPSLTWIATATAVLNVNALPVFVDVEADTYCIDPQLIKSAITDKTKAIIPVHLFGSMANMDEINEIAQEHNLFVIEDCAQSHGSVWNNQRAGTIGDIGAFSCQQGKVLTAGEGGIIVTKNPRLFELIQQLRADSRVYCDDSSELMHGDMQLVKKGDIQGSNYCLSEFQSAILLDQLQELDDKNAIREKNAMFLNDALSKIDGIKVMKRPPQVSRQTYYGYVFRFDPVKFGGLNADQFCEILREKLNMGTFYLHPPYLPVHKNPLFCPWTKNRYLKSVRKTEAYWRGLHYPVSERASGQSIVIHHAILLAEPSHLSLLVDAVAELARKFCVTH	soluble
